Experimental data reported in the nanobody polyreactivity screen of Harvey et al. (2022).

Test: yeast display, Sf9 membrane polyspecificity reagent, FACS + sequencing; frameworks hold sequencing errors
Summary of the method: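 Galactose-induced (36–48 hours) yeast carrying a synthetic nanobody display library were exposed to 10% biotinylated, detergent-solubilized Sf9 membrane reagent at 4 °C for 1 hour. FACS followed streptavidin microbead enrichment, using low and high (top ~1%) gates for expression (anti-HA) and reagent binding (streptavidin). Colony PCR, MiSeq 2 × 250 sequencing and CDR-length filtering followed. Labels for polyreactivity reflect the gate of origin.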

| Sequence | polyreactivity (PSR sort gate) |
| --- | --- |
| QVQLVESGGGLVQAGGSLRLSCAASGSTLDVYAMGWYRQAPGKERELVAAISWSVGSTYYADSVKGRFKISRDNAKNTVYLQMNSLKPEDTAVYYCAAEPYEYAYYGYDYWGQGTQVTVSS | high polyreactivity |
| QVQLVESGGGLVQAGGSLRLSCAASGSTLDVYDMGWYRQAPGKEREFVATISFSVGSTDYADSVKGRFTISRDNAKNTVYLQMNSLKPEDTAVYYCAADVSEWSNQYFDSYLRMDYWGQGTQVTVSS | low polyreactivity |
| QVQLVESGGGLVQAGGSLRLSCAASGSTLESYAMGWYRQAAGKERELVAAISKSGGRTYYADSVKGRFTISRDNAKNTVYLQMNSLKPEDTAVYYCAADSCTHLTYYWGQGTQVTVSS | high polyreactivity |
| QVQLVESGGGLVQAGGSLRLSCAASGSTLFAYAMGWYRQAPGKERELVAAITSGASTNCADSVKGRFTISRDNAKNTVYLQMNSLKPEDTAVYYCAKDVSGTNPDYDYWGQGTQVTVSS | low polyreactivity |
| QVQLVESGGGLVQAGGSLRLSCAASGSTLFGYAMGWYRQAPGKEREFVAAISRSGGRTYYADSVKGRFTISRDNAKNTVYLQMNSLKPEDTAVYYCATVRRRLSLTYDYWGQGTQVTVSS | high polyreactivity |
| QVQLVESGGGLVQAGGSLRLSCAASGSTLFLYAMGWYRQAPGKERELVAAITWSGGSTYYADSVKGRFTISRDNAKNTVYLQMNSLKPEDTAVYYCAKYGRYFWNSGVDYWGQGTQVTVSS | high polyreactivity |
| QVQLVESGGGLVQAGGSLRLSCAASGSTLFTYAMGWYRQAPGKERELVAAITSSGSTYYADSVKGRFTISRDNAKNTVYLQMNSLKPEDTAVYYCAVPGYRYTKYYYWGQGTQVTVSS | low polyreactivity |
| QVQLVESGGGLVQAGGSLRLSCAASGSTLGAYAMGWYRQAPGKERELVAAITYSTGSTYYADSVKGRFTISRDNAKNTVYLQMNSLKPEDTAVYYCAAATYQSRYFQRFDCWGQGTQVTVSS | high polyreactivity |
| QVQLVESGGGLVQAGGSLRLSCAASGSTLGGYAMGWYRQAPGKERELVASISWDDVRTYYADSVKGRFTISRDNAKNTVYLQMNSLKPEDTAVYYCAKGDIEYFWSRIYGYWGQGTQVTVSS | low polyreactivity |
| QVQLVESGGGLVQAGGSLRLSCAASGSTLGRNAMGWDRQAPGKEREFVAAITYSTGSTYYADSVKGRFTISRDNAKNTVYVQMNSLKPEDTAVYYCAKGRLTRGYVTFEYWGQGTQVTGSS | high polyreactivity |
| QVQLVESGGGLVQAGGSLRLSCAASGSTLGYNAMGCYRQAPGKERELVAAIRGGDDDTYYADSVKGRFTISRDNAKNTVYLQMNSMNPEDTAVYYCATGDTSIPYSPPGGYDSWGQGTQVTVSS | low polyreactivity |
| QVQLVESGGGLVQAGGSLRLSCAASGSTLGYYAMGWYRQAPGKERELVAAISKGGGSTYYADSVKGRFTISRDNAKNTVYLQMNSLKPEETAVYYCAAYSTSWSRYDYWGQGTQVTVSS | high polyreactivity |
| QVQLVESGGGLVQAGGSLRLSCAASGSTLHYYAMGWYRQAPGKERELVAAISATGGSTYYADSVKGRFTISRDNAKNTVYLQMNSLKPEDTAVYYCARTYRSHWVYTRLDYWGQGTQVTVSS | high polyreactivity |
| QVQLVESGGGLVQAGGSLRLSCAASGSTLIANAMGWYRQAPGKERELVAGITYRGGDITTYADSVKGRFTISRDNAKNTVYLQKTSLKPEDTAVYYCAARVVWPTWARGGYWGQGTQVTVSS | low polyreactivity |
| QVQLVESGGGLVQAGGSLRLSCAASGSTLKRYAMGWYRQAPGKERELVARISRIGGSTFYADSVKGRFTISRDNAKNTVYLQMNSLNPEDTAVYYCAAVPLHYVYRADQAYYRYNYWGQGTQVTVSS | high polyreactivity |
| QVQLVESGGGLVQAGGSLRLSCAASGSTLKYNAMGWYRQAPGKEREFVASITLSAGRTYYADSVKGRFTISRDNAKNTVYLQMNSLKPEDTAVYYCAARRYFSYRYDYWGQGTQVTVSS | high polyreactivity |
| QVQLVESGGGLVQAGGSLRLSCAASGSTLKYYAMGRYRQAPGKEMELVAAIRNLGGRTYYADSVKGRFTISRDNAKNTVYLQMNSLKPEDTAVYYCAAQFQSTAVGRDNYWGQGTQVTVSS | high polyreactivity |
| QVQLVESGGGLVQAGGSLRLSCAASGSTLLANAMGWYRQAPGKERELVATITNSGGGTYYADSVKGRFTISRDNAKNTVYLQMNSLKPEDTAVYYCAAVYTGRSQYSKWRYEYWGQGTQVTVSS | low polyreactivity |
| QVQLVESGGGLVQAGGSLRLSCAASGSTLLYYAMGWYRQAPGKERELVAAINKSGGRTYYADSVKGRFTISRDNAKNTVYLQMNSLKPEDTAVYYCAVDISVTGSSNRYGYWGQGTQVTVSS | high polyreactivity |
| QVQLVESGGGLVQAGGSLRLSCAASGSTLNRNVMGSYRQAPGKERELVAVITYGVGSTYYADSVKGRFTISRDNAKNTVYLQLNSLKPEDTAVYYCNKDPLVFDYWGQGTQVTVSS | low polyreactivity |
| QVQLVESGGGLVQAGGSLRLSCAASGSTLNRYAMGWYRQAPGKERELVAAISISGGRTYYADSVKGRFTISRDNAKNTVYLQMNSLKPEDTAVYYCADGNYLYSYGYGYWGQGTQVTVSS | high polyreactivity |
| QVQLVESGGGLVQAGGSLRLSCAASGSTLQVNAMGWYRQAPGKETELVATISFSGGSTYYADSVKGRFTISRDNAMNTVYLQMNSLKPEETAAYYCNADSFVSWYNQFWYQATYDYWGQGTKVTVSS | low polyreactivity |

| Sequence | polyreactivity (PSR sort gate) |
| --- | --- |
| QVQLVESGGGLVQAGGSLRLSCAASGSTLRAYAMGWYRQAPGKDRELVAAISGRGGRTYYADSVKGRFTISRDNAKNTVYLQMNSLKPEDTAVYYCATRYREPYVWPYDYWGRGTQVTVSS | high polyreactivity |
| QVQLVESGGGLVQAGGSLRLSCAASGSTLRGNAMGWYRQAPGKEREFVAAISSSGGRTYYADSVKGRFTISRDNAKNTVYLQMNSLKPEDTAVYYCNADPYNYSRRYRLRKYGYWGQGTQVTVSS | high polyreactivity |
| QVQLVESGGGLVQAGGSLRLSCAASGSTLRHNVMGWYRQAPGKERELVAAITFSGGSTTYADSVKGRFTISRDNAKNTVYLQMNSLKPEDTAVYYCNAVYAGAGSFHPGYGYWGQGTQVTVSS | low polyreactivity |
| QVQLVESGGGLVQAGGSLRLSCAASGSTLRRYAMGWYRQAPGKERELVAAITYRSGSTYYADSVKGRFTISRDNAKNTVYLQMNSLKPEDTAVYYCAKVGYVSKYWFAGDYWGQGTQVTVSS | high polyreactivity |
| QVQLVESGGGLVQAGGSLRLSCAASGSTLRSYVMGWYRQAPGKERELVAAISIRGDSTYYADSVKGRFTISRDNAKNTVYLQMNSLKPEDTAVYYCAAASNRYPNSWYYYWGQGTQVTVSS | high polyreactivity |
| QVQLVESGGGLVQAGGSLRLSCAASGSTLRYYAMGWYRQAPGKEREWVAAISTGGSTYYADSVKGRFTISRDNAKKTVYLQMHSLKPEDTAVYYCAAEPWANTPGEAGSPFDYWGQGTQVTVSS | low polyreactivity |
| QVQLVESGGGLVQAGGSLRLSCAASGSTLSDNAMGWYRQAPGKERELVASISWSGGTYYADSVKGRFTISRDNAKNTVYLQMNSLKPEDTAVYYCAAYIYYNYSRQYWFDYWGQGTQVTVSS | low polyreactivity |
| QVQLVESGGGLVQAGGSLRLSCAASGSTLSEYAMGWYRQAPGKERELVAAISWSGGSTYYADSVKGRFTISRDNAKNTVYLQMNSLKPEDTAVYDCAAKRYSSKRGLDYWGQGTHVTVSS | high polyreactivity |
| QVQLVESGGGLVQAGGSLRLSCAASGSTLSLYAMGWSRQAPGKERELVAAITSSGGTYYADSVKGRFTISRDNAKNTVYLQMNSLKPEDTADYYCARSRYRAQGKFDYWGQGTQVTVSS | high polyreactivity |
| QVQLVESGGGLVQAGGSLRLSCAASGSTLSQNAMGWYRQAPGKEREFVADISGAGDSTYYADSVKGRFTISRDNAKNTVYLQMISLKPDDTAVYYCATPSPHVGLKWEYDYWGQGTQVTVSS | low polyreactivity |
| QVQLVESGGGLVQAGGSLRLSCAASGSTLSVNAMGWYRPAPGKERELVAAIDFDGGDTYYADSVKGRFTISRDNAKNNVYLQMNSLKPEDTAVYYCAADIGGQYDYLADDYWGQGTQVTVSS | low polyreactivity |
| QVQLVESGGGLVQAGGSLRLSCAASGSTLSYNAMGWYRQAPGKERELVAAISGRGGSTSYADSVKGRFTISRDNAKNTVYLQMNSLKPEDTAVYYCNRYSRSAYEWEYYSWGQGTQVTVSS | high polyreactivity |
| QVQLVESGGGLVQAGGSLRLSCAASGSTLSYYAMGWYRQAPGKERELVAAISFSGGITYYADSVKGRFTISRDNAKNTVYLQMNSLKPEDTAVYYCNAEYQVYRAYVIWYDYWGQGTQVTVSS | high polyreactivity |
| QVQLVESGGGLVQAGGSLRLSCAASGSTLTRNTMGCYRQAPAKERELVATNTRSGGSTYYADSVKGRFTISRDNAKNTVYLQMNSLKPEDTAVYYCAVRRQTFRYVYPGMDYWGQGTQVTVSS | high polyreactivity |
| QVQLVESGGGLVQAGGSLRLSCAASGSTLTSNAMGWYRQAPGKERELVAAIRSGGSTNYADSVKGRFTISRDNAKNTVYLQMNSLKPEDTAVYYCNKDFLWQGYGYSRVSYDYWGQGTQVTVSS | low polyreactivity |
| QVQLVESGGGLVQAGGSLRLSCAASGSTLTYNAMGWYRQAPGKERELVAAIDWDGDTTYYADSVKGRFTISRDNAKNTVYLQMNSLKPEDTAVYYCAAEFYSLGKAIYEYWGQGTQVTVSS | high polyreactivity |
| QVQLVESGGGLVQAGGSLRLSCAASGSTLTYYTMGWYRQAPGKERELVARISWSSGRTYYADSVKGRFTISRDNAKNTVYLQMNSLKPEDTAVYYCNADRTYYRGLDYWGQGTQVTVSS | high polyreactivity |
| QVQLVESGGGLVQAGGSLRLSCAASGSTLVGNTMGWYRQAPGKERELVAAITGVGSRNYADSVKGRFTISRDNAKNTVYLQMNSLKPEDTALYYCAAETWYSVLWEEGYDYWGHGTQVTVSS | low polyreactivity |
| QVQLVESGGGLVQAGGSLRLSCAASGSTLVIYAMGWYRQAPGKERELVAAINFSDGSTSYADSVKGRFTISRDNAKNTVYLQMNSLKPEDTAVYYWGQGTQVTVSS | low polyreactivity |
| QVQLVESGGGLVQAGGSLRLSCAASGSTLVIYAMGWYRQAPVKEREFVAAIRCSPGRTYYADSVKGRFTISRDNAKNSVYLQMNSLKPEDTAVYYCAVEYQSWKGWWFDYWGQGTQLTVSS | high polyreactivity |
| QVQLVESGGGLVQAGGSLRLSCAASGSTLVKYAMGWYRQAPGKERELVAAISWSGGRTYYADSVKGRFTISRDNAKNTVYLQMNSLKPEDTAVYYCAARSTRFYTPGYYYWGQGTQVTVSS | high polyreactivity |
